Reference: CN116406375A (UNIV SHANGHAI TECHNOLOGY, dated 2023)

B1: S-D4 (antibody, V domains shown)
VH: QVQLQESGGGVVQPGRSLRLSCEVSGFTFSDYGMHWVRQAPGKGLEWVAVIWSEGSTEYYADSVKGRFTISRDNSKDTLYLQMNSLRAEDTAVYYCARPGYPTSTDRSPAAAGARQYYYYGMDVWGQGTTVTVSS
VL: NFMLTQPHSVSESPGKTVTISCTRSGGSGAANYVQWYQQRPGSSPTTLIYEDSRRPPGVPDRFSGSVDTSSNSASLTISGLQTEDEADYYCQSYDSSNHVVFGGGTKLTVLG
notes: also called S-D4二聚体; S-D4 IgG4
B2: S-B8 (antibody, V domains shown)
VH: QVQLVQSGGGLIQPGGSLRLSCAASGFTVSLSHMNWVRQAPGKGLEWVSITYGDGNSDYADSVKGRFTISRDNSKNTLYLQMNSLRAEDTAVYYCAREYYYGMDVWGQGTTVTVSS
VL: not shown
notes: also called S-B8二聚体
B3: S-E6 (antibody, V domains shown)
VH: QVTLRESGPGLVKPSETLSLTCAVSGGSLSSVNYYWSWIRQHPGKGLEWIGYIYYSGSTNYNPSLKSRVTMSLDTSKNQFSLKLSSVTAADTAVYYCATPGAIMGALHIWGQGTLVTVSS
VL: QAVLTQPSSASSTPGQRVIISCSGSSSNIGSNTVSWYQQVPGAAPKLLIYFDYRRPSGVPDRFSGTRSGTSASLGISGLQSEDEADYYCAAWDDSLSAWVFGRGTKLTVLG
notes: also called S-E6二聚体; 二聚体S-E6

Molecular target: 真SARS-CoV-2病毒 Victoria/01/2020 的刺突 (SARS-CoV-2)
Assay: cell-based or functional assay

Q: B1 was tested. Which “NT50, 真病毒中和 (Victoria/01/2020)” value did it give?
A: The value was 2.04 nM.

Q: B2 was tested. Which “NT50, 真病毒中和 (Victoria/01/2020)” value did it give?
A: Its value is 0.88 nM.

Q: With B3 as the binder, how does the “NT50, 真病毒中和 (Victoria/01/2020)” value read?
A: Its value is 0.15 nM.

Molecular target: T1, HCoV-OC43刺突 (HCoV-OC43, UniProt P36334 14-1353)
T1 construct: whole, on cells
T1 sequence: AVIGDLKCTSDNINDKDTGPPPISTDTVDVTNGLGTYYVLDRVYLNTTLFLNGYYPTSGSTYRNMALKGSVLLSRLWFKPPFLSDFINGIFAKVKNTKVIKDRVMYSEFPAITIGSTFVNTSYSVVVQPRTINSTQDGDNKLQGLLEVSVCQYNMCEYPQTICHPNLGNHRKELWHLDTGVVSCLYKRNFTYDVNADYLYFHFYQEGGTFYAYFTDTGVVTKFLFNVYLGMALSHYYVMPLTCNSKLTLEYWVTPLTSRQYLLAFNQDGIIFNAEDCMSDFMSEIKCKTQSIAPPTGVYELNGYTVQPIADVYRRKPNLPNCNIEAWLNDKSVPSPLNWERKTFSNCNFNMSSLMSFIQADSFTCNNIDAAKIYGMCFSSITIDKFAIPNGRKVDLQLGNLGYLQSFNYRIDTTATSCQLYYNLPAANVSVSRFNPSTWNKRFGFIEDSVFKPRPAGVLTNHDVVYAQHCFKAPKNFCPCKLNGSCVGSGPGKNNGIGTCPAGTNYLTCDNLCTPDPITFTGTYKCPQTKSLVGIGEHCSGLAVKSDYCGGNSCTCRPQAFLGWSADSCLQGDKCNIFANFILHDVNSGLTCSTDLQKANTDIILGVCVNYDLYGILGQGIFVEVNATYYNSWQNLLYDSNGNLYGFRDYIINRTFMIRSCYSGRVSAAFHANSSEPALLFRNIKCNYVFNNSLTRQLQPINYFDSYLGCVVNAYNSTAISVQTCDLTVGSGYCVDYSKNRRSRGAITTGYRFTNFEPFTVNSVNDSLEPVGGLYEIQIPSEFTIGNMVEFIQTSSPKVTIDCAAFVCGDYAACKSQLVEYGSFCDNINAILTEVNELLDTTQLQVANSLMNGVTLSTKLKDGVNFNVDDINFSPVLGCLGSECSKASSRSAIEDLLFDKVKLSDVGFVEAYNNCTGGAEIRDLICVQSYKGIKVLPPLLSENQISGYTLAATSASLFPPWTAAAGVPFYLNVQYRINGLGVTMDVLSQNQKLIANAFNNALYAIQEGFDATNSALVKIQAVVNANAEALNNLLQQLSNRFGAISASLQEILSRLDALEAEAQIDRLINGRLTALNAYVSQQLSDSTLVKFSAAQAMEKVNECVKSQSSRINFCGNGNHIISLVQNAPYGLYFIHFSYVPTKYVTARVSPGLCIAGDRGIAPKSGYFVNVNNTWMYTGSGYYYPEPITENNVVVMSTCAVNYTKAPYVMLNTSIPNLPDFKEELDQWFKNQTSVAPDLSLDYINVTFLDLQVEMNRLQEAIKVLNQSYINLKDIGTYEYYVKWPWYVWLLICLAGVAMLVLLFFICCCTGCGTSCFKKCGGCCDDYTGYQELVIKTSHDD
Assay: FACS on transfected HEK293T cells

Q: Does B1 bind?
A: Result: no binding

Q: Does B2 bind?
A: Result: no binding

Q: Does B3 bind?
A: Result: no binding

Molecular target: T2, HCoV-NL63刺突 (HCoV-NL63, UniProt Q6Q1S2 19-1356)
T2 construct: whole, on cells
T2 sequence: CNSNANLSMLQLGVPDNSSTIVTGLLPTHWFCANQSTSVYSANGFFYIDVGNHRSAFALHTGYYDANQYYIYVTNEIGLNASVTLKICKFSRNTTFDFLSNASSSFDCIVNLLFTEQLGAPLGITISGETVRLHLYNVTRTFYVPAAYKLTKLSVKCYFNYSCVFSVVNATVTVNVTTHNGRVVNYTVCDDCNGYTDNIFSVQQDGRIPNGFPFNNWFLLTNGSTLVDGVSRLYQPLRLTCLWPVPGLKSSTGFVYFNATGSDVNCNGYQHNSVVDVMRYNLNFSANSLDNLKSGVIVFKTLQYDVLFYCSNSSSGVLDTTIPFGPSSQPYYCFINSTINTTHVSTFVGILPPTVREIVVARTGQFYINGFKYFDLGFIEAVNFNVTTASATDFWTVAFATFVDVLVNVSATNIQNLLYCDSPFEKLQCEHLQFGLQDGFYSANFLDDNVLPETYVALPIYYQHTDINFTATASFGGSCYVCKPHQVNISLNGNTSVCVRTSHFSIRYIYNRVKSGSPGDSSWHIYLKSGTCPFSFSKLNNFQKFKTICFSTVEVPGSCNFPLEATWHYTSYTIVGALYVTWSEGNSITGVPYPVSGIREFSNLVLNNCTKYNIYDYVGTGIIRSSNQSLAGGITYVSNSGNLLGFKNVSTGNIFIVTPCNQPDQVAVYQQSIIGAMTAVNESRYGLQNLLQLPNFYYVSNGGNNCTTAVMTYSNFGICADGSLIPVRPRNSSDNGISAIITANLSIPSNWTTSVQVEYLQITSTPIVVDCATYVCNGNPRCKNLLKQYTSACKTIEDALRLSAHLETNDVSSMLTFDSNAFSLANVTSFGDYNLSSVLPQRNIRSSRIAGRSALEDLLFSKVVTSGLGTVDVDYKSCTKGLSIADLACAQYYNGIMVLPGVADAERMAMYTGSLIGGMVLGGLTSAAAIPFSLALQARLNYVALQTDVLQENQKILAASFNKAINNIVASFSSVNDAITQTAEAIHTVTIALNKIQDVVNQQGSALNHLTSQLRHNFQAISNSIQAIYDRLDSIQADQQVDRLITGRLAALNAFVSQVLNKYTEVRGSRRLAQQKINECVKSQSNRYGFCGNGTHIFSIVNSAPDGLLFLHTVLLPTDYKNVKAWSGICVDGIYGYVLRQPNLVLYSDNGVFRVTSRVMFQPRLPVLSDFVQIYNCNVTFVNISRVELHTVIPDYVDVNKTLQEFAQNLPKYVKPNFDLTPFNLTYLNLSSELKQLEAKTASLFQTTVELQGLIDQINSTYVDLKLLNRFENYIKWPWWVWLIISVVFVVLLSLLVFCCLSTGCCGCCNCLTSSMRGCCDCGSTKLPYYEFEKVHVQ
Assay: FACS on transfected HEK293T cells

Q: Does B1 bind?
A: Result: no binding

Q: Does B2 bind?
A: Result: no binding

Q: Does B3 bind?
A: Result: no binding

Molecular target: T3, HCoV-HKU1刺突 (HCoV-HKU1, UniProt Q5MQD0 13-1356)
T3 construct: whole, on cells
T3 sequence: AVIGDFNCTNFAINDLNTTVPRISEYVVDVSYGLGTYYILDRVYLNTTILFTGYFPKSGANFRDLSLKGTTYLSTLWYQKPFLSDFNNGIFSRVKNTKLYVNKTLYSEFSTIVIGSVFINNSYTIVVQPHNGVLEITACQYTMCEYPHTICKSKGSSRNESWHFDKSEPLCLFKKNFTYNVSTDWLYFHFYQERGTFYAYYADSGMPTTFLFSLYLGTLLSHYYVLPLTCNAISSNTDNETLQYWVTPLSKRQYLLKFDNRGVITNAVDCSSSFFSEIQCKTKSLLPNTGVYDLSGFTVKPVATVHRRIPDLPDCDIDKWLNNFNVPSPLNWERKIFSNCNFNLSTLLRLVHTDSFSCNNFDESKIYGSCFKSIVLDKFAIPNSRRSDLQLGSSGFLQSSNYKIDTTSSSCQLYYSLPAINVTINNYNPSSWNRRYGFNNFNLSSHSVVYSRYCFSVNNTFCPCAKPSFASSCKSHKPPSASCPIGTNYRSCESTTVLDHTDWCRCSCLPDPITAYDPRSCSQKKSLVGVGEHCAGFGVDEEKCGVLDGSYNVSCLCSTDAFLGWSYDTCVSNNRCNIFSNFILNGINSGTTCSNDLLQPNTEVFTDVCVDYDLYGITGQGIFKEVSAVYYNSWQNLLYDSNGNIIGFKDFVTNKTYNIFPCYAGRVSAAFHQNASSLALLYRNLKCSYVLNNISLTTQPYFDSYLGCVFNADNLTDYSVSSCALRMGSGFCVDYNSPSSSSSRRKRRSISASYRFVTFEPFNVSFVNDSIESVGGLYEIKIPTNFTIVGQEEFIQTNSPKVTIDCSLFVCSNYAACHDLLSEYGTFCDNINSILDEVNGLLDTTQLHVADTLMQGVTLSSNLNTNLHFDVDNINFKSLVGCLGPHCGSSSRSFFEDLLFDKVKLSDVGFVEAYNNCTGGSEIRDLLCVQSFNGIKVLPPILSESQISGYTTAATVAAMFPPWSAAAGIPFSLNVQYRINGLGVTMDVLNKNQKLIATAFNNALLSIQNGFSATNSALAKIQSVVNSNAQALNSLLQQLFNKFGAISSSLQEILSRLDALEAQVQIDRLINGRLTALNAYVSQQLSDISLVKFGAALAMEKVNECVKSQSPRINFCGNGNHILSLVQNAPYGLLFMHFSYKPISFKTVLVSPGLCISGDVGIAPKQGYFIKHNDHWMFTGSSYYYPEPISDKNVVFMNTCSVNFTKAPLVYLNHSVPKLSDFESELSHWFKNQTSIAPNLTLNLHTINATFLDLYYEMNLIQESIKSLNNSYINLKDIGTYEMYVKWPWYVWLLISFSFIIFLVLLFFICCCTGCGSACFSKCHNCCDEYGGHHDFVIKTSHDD
Assay: FACS on transfected HEK293T cells

Q: Does B1 bind?
A: Result: no binding

Q: Does B2 bind?
A: Result: no binding

Q: Does B3 bind?
A: Result: no binding

Molecular target: T4, HCoV-229E刺突 (HCoV-229E, UniProt P15423 16-1173)
T4 construct: whole, on cells
T4 sequence: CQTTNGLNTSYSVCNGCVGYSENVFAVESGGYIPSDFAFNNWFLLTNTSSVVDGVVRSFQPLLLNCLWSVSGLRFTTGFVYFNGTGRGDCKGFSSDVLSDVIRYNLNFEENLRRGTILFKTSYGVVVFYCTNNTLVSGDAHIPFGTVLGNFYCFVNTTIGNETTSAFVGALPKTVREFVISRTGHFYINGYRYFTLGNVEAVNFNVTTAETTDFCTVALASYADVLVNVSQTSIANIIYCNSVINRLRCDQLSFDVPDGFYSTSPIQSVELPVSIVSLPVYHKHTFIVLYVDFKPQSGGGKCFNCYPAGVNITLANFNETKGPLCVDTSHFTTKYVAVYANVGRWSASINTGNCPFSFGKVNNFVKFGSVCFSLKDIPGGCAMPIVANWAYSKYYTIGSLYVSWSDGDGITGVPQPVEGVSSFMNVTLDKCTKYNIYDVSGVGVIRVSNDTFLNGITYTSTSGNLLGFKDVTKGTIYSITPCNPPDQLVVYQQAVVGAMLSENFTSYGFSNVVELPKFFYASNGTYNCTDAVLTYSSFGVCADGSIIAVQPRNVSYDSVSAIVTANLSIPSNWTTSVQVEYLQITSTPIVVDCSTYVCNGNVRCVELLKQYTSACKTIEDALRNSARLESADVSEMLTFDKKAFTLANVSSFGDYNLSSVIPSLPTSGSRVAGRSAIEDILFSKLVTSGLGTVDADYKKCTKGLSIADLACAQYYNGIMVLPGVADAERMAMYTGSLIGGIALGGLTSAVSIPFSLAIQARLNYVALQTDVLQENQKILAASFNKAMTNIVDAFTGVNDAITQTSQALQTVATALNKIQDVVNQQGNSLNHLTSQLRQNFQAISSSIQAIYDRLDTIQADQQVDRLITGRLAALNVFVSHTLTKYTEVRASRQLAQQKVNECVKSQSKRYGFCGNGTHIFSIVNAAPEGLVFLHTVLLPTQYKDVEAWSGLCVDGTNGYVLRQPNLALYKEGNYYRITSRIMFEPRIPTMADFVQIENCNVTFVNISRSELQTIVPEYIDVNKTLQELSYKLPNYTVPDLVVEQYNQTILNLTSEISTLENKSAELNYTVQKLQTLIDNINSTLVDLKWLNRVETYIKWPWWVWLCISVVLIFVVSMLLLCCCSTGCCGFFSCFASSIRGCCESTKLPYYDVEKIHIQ
Assay: FACS on transfected HEK293T cells

Q: Does B1 bind?
A: Result: no binding

Q: Does B2 bind?
A: Result: no binding

Q: Does B3 bind?
A: Result: no binding
